PMC4125116

What was measured:
[1] = biological target: BldM fused to the T18 or the T25 fragment of adenylate cyclase (BACTH) (Streptomyces venezuelae); assay: two-hybrid; bacterial two-hybrid (BACTH), T18 (pUT18) and T25 (pKT25) fusions in E. coli BTH101; transformants grown at 30°C for two days; β-galactosidase assays of four independent clones
[2] = biological target: WhiI fused to the T18 or the T25 fragment of adenylate cyclase (BACTH) (Streptomyces venezuelae); assay: as above

β-galactosidase activity (Miller units) [1] [Miller units] | β-galactosidase activity (Miller units) [2] [Miller units] | Substance
750 | 3000 | BldM fused to the T18 or the T25 fragment of adenylate cyclase (BACTH) (natural protein)
3000 | – | WhiI fused to the T18 or the T25 fragment of adenylate cyclase (BACTH) (natural protein)
